The values below come from US20200131230A1 (published 2020).

The labels stand for the following.
B1: Compound 65 (peptide)
peptide: {CH2CO}-FISGRNWVTWVC-NH2
modifications: thioether N-12
SMILES: CC[C@H](C)[C@@H]1NC(=O)[C@H](Cc2ccccc2)NC(=O)CSC[C@@H](C(N)=O)NC(=O)[C@H](C(C)C)NC(=O)[C@H](Cc2c[nH]c3ccccc23)NC(=O)[C@H]([C@@H](C)O)NC(=O)[C@H](C(C)C)NC(=O)[C@H](Cc2c[nH]c3ccccc23)NC(=O)[C@H](CC(N)=O)NC(=O)[C@H](CCCNC(=N)N)NC(=O)CNC(=O)[C@H](CO)NC1=O
B2: Compound 66 (peptide)
peptide: {CH2CO}-FISGKNWVSWVC-NH2
modifications: thioether N-12
SMILES: CC[C@H](C)[C@@H]1NC(=O)[C@H](Cc2ccccc2)NC(=O)CSC[C@@H](C(N)=O)NC(=O)[C@H](C(C)C)NC(=O)[C@H](Cc2c[nH]c3ccccc23)NC(=O)[C@H](CO)NC(=O)[C@H](C(C)C)NC(=O)[C@H](Cc2c[nH]c3ccccc23)NC(=O)[C@H](CC(N)=O)NC(=O)[C@H](CCCCN)NC(=O)CNC(=O)[C@H](CO)NC1=O
B3: Compound 98 (peptide)
peptide: {CH2CO}-[2Nal]RSGKNWVVWVC-NH2
modifications: thioether N-12
SMILES: CC(C)[C@@H]1NC(=O)[C@H](Cc2c[nH]c3ccccc23)NC(=O)[C@H](C(C)C)NC(=O)[C@H](C(C)C)NC(=O)[C@H](Cc2c[nH]c3ccccc23)NC(=O)[C@H](CC(N)=O)NC(=O)[C@H](CCCCN)NC(=O)CNC(=O)[C@H](CO)NC(=O)[C@H](CCCNC(=N)N)NC(=O)[C@H](Cc2ccc3ccccc3c2)NC(=O)CSC[C@@H](C(N)=O)NC1=O
B4: Compound 79 (peptide)
peptide: {CH2CO}-[2Nal]ISGRDW[Nle]KWV[Pen]-NH2
modifications: thioether N-12
SMILES: CCCC[C@@H]1NC(=O)[C@H](Cc2c[nH]c3ccccc23)NC(=O)[C@H](CC(=O)O)NC(=O)[C@H](CCCNC(=N)N)NC(=O)CNC(=O)[C@H](CO)NC(=O)[C@H]([C@@H](C)CC)NC(=O)[C@H](Cc2ccc3ccccc3c2)NC(=O)CSC(C)(C)[C@@H](C(N)=O)NC(=O)[C@H](C(C)C)NC(=O)[C@H](Cc2c[nH]c3ccccc23)NC(=O)[C@H](CCCCN)NC1=O
B5: Compound 82 (peptide)
peptide: {CH2CO}-L[2Nal]ISGRDW[Nle]KWVC-NH2
modifications: thioether N-13
SMILES: CCCC[C@@H]1NC(=O)[C@H](Cc2c[nH]c3ccccc23)NC(=O)[C@H](CC(=O)O)NC(=O)[C@H](CCCNC(=N)N)NC(=O)CNC(=O)[C@H](CO)NC(=O)[C@H]([C@@H](C)CC)NC(=O)[C@H](Cc2ccc3ccccc3c2)NC(=O)[C@H](CC(C)C)NC(=O)CSC[C@@H](C(N)=O)NC(=O)[C@H](C(C)C)NC(=O)[C@H](Cc2c[nH]c3ccccc23)NC(=O)[C@H](CCCCN)NC1=O
B6: Compound 103 (peptide)
peptide: {CH2CO}-[2Nal]RSGKNW[Nle][Phg]WVC-NH2
modifications: thioether N-12
SMILES: CCCC[C@@H]1NC(=O)[C@H](Cc2c[nH]c3ccccc23)NC(=O)[C@H](CC(N)=O)NC(=O)[C@H](CCCCN)NC(=O)CNC(=O)[C@H](CO)NC(=O)[C@H](CCCNC(=N)N)NC(=O)[C@H](Cc2ccc3ccccc3c2)NC(=O)CSC[C@@H](C(N)=O)NC(=O)[C@H](C(C)C)NC(=O)[C@H](Cc2c[nH]c3ccccc23)NC(=O)[C@H](c2ccccc2)NC1=O
B7: Compound 85 (peptide)
peptide: {CH2CO}-T[2Nal]ISGRDW[Nle]KWVC-NH2
modifications: thioether N-13
SMILES: CCCC[C@@H]1NC(=O)[C@H](Cc2c[nH]c3ccccc23)NC(=O)[C@H](CC(=O)O)NC(=O)[C@H](CCCNC(=N)N)NC(=O)CNC(=O)[C@H](CO)NC(=O)[C@H]([C@@H](C)CC)NC(=O)[C@H](Cc2ccc3ccccc3c2)NC(=O)[C@H]([C@@H](C)O)NC(=O)CSC[C@@H](C(N)=O)NC(=O)[C@H](C(C)C)NC(=O)[C@H](Cc2c[nH]c3ccccc23)NC(=O)[C@H](CCCCN)NC1=O
B8: Compound 89 (peptide)
peptide: {CH2CO}-W[2Nal]ISGRDW[Nle]KWVC-NH2
modifications: thioether N-13
SMILES: CCCC[C@@H]1NC(=O)[C@H](Cc2c[nH]c3ccccc23)NC(=O)[C@H](CC(=O)O)NC(=O)[C@H](CCCNC(=N)N)NC(=O)CNC(=O)[C@H](CO)NC(=O)[C@H]([C@@H](C)CC)NC(=O)[C@H](Cc2ccc3ccccc3c2)NC(=O)[C@H](Cc2c[nH]c3ccccc23)NC(=O)CSC[C@@H](C(N)=O)NC(=O)[C@H](C(C)C)NC(=O)[C@H](Cc2c[nH]c3ccccc23)NC(=O)[C@H](CCCCN)NC1=O
B9: Compound 87 (peptide)
peptide: {CH2CO}-F[2Nal]ISGRDW[Nle]KWVC-NH2
modifications: thioether N-13
SMILES: CCCC[C@@H]1NC(=O)[C@H](Cc2c[nH]c3ccccc23)NC(=O)[C@H](CC(=O)O)NC(=O)[C@H](CCCNC(=N)N)NC(=O)CNC(=O)[C@H](CO)NC(=O)[C@H]([C@@H](C)CC)NC(=O)[C@H](Cc2ccc3ccccc3c2)NC(=O)[C@H](Cc2ccccc2)NC(=O)CSC[C@@H](C(N)=O)NC(=O)[C@H](C(C)C)NC(=O)[C@H](Cc2c[nH]c3ccccc23)NC(=O)[C@H](CCCCN)NC1=O
B10: Compound 100 (peptide)
peptide: {CH2CO}-[2Nal]RSGHNW[Nle]VWVC-NH2
modifications: thioether N-12
SMILES: CCCC[C@@H]1NC(=O)[C@H](Cc2c[nH]c3ccccc23)NC(=O)[C@H](CC(N)=O)NC(=O)[C@H](Cc2c[nH]cn2)NC(=O)CNC(=O)[C@H](CO)NC(=O)[C@H](CCCNC(=N)N)NC(=O)[C@H](Cc2ccc3ccccc3c2)NC(=O)CSC[C@@H](C(N)=O)NC(=O)[C@H](C(C)C)NC(=O)[C@H](Cc2c[nH]c3ccccc23)NC(=O)[C@H](C(C)C)NC1=O
B11: Compound 94 (peptide)
peptide: {CH2CO}-F[2Nal]ISGKDW[Nle]RWVC-NH2
modifications: thioether N-13
SMILES: CCCC[C@@H]1NC(=O)[C@H](Cc2c[nH]c3ccccc23)NC(=O)[C@H](CC(=O)O)NC(=O)[C@H](CCCCN)NC(=O)CNC(=O)[C@H](CO)NC(=O)[C@H]([C@@H](C)CC)NC(=O)[C@H](Cc2ccc3ccccc3c2)NC(=O)[C@H](Cc2ccccc2)NC(=O)CSC[C@@H](C(N)=O)NC(=O)[C@H](C(C)C)NC(=O)[C@H](Cc2c[nH]c3ccccc23)NC(=O)[C@H](CCCNC(=N)N)NC1=O

Positions of bridges follow the written chain, without caps; N, C: chain ends. Non-standard residues stand in square brackets, D forms with d. 2Nal = N[C@@H](Cc1ccc2ccccc2c1)C(=O)O; Pen = CC(C)(S)[C@H](N)C(=O)O; Phg = N[C@H](C(=O)O)c1ccccc1; Nle = CCCC[C@H](N)C(=O)O; HCt = not defined here; MS = not defined here

In the first test the target is T1, Thrombospondin human platelet (Calbiochem, 605225) (human, UniProt P07996 19-1170). Briefly: cell-based or functional assay.
T1 sequence (P07996 19-1170 limits assumed): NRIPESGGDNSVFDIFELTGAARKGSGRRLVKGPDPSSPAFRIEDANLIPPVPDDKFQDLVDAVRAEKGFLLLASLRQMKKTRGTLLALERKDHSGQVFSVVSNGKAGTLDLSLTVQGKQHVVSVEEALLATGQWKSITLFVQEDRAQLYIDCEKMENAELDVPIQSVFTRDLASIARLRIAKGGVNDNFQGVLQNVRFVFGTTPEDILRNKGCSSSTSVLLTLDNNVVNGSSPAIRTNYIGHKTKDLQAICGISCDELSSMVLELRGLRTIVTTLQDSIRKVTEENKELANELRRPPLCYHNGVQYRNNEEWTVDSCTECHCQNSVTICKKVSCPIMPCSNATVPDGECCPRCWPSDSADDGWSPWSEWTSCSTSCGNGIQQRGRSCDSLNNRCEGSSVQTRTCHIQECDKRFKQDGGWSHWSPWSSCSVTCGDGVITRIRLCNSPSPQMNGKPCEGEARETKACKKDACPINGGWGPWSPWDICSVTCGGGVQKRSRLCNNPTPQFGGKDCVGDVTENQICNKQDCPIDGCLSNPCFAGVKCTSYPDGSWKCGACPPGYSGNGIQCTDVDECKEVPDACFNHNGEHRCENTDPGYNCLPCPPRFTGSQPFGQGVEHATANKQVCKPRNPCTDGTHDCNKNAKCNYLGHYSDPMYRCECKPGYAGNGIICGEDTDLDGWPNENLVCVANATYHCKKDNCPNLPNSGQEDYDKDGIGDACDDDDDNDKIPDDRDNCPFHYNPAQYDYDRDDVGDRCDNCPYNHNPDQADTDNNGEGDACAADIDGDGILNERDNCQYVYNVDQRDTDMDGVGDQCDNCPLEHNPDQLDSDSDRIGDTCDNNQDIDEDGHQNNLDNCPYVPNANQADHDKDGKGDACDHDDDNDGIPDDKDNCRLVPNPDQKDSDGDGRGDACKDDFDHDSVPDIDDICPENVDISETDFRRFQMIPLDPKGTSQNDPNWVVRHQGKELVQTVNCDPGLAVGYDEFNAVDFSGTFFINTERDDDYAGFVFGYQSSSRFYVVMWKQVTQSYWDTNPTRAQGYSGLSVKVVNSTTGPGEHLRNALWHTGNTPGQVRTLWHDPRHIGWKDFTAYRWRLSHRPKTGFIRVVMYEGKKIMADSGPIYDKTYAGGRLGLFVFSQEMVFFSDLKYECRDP
B1: the “Cell adhesion IC50” value was 30.6 nM. In the case of {CH2CO}-[2Nal]ISG[MS]DW[Nle]KWVC-NH2 (thioether N-12; reading uncertain) [Compound 67], the “Cell adhesion IC50” value amounted to 12.7 nM. On the same count and under the same terms, with {CH2CO}-[2Nal]ISG[3Hyp]NW[Nle]HWVC-NH2 (thioether N-12) [Compound 69] the figure was 27.9 nM. Regarding {CH2CO}-[2Nal]ISG[HCt]DW[Nle]KWVC-NH2 (thioether N-12; reading uncertain) [Compound 74], the “Cell adhesion IC50” value stood at 20.7 nM. With B2, the “Cell adhesion IC50” value was found to be 33.8 nM.

A further test addresses T1, Thrombospondin human platelet …. Briefly: cell-based or functional assay. This is another data set of the same source.
Consider B3, for which the “Cell adhesion IC50” value amounted to 3.9 nM.

B4: the “Cell adhesion IC50” value worked out at 15 nM. In the case of B5, the “Cell adhesion IC50” value was determined as 29.9 nM. In the case of B6, the “Cell adhesion IC50” value came out at 12.4 nM. Turning to B7, the “Cell adhesion IC50” value is 15.5 nM. In the case of B8, the “Cell adhesion IC50” value came out at 23.8 nM. The same measure, in the same setting: for B9 the value was 15.8 nM; for B10, 19.5 nM; for B11, 25.1 nM.
